Experiments:
SpoVG [1] = biological target: T1, SpoVG (Borrelia burgdorferi, UniProt O51726 1-97); assay: competition
T1 sequence: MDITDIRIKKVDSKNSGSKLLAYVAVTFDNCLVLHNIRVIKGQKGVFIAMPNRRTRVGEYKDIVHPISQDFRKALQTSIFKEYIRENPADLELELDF

SpoVG [2] = biological target: T1, SpoVG; assay: competition; remark: listed apart in the source
SpoVG [3] = biological target: T1, SpoVG; assay: EMSA

UAUGUACUUUAAGCGGGAGGCUUAUAA (ssRNA) [RNA-17]
binding result (SpoVG [1]): binds

UAUGUACAAAAAGCGGGAGGCUUAUAA (ssRNA) [RNA-03]
binding result (SpoVG [1]): binds

UAUGUACUUAAAGCGGGAGGCUUAUAA (ssRNA) [RNA-20]
binding result (SpoVG [1]): binds

UAUGUACUUUUUGCGGGAGGCUUAUAA (ssRNA) [spoVG RNA]
IC50 (SpoVG [2]): 1030 nM
Kd (SpoVG [3]): 59 nM

Source: publication PMC11086051
